Patent US20250084164A1 (NEXTCURE, published 2025)
Substitutions are numbered along the chain they refer to. One block for each binder: values may come before it.

Key:
[1] = molecular target: T1, monomeric LAIR-1-His (R&D Systems) (UniProt Q6GTX8 22-163); experiment: BLI (Octet RED96)
T1 chain: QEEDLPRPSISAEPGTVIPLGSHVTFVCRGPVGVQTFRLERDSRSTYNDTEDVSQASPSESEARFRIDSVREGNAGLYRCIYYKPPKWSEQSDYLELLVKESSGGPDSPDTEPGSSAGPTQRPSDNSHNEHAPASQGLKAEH

[2] = molecular target: T2, monomeric LAIR-1-His (R&D Systems) (UniProt Q6GTX8 22-163, limits assumed); experiment: BLI (Octet RED96), chimeric mAb on anti-human IgG sensor, monomeric LAIR-1-His in solution
T2 construct: Bought protein
T2 sequence (looked up): T1 chain
Protocol: Anti-human IgG capture sensors were used to bind to chimeric LAIR-1 mAbs at a density to ensure 1:1 binding to monomeric LAIR-1-His (R&D Systems) in solution at various concentrations. Assay buffer was PBS with 0.05% Tween-20 and regeneration buffer was 10 mM glycine pH 1.5. First, chimeric LAIR-1 mAbs were loaded to sensor. This was followed by association step with LAIR-1-His, and a dissociation step in a separate LAIR-1-His free well. Data was processed using ForteBio data analysis software 9.0. A global fit was used following subtraction of reference wells. The reported average KD values are from at least three independent Octet runs with high confidence of accuracy based on X2 and R2 values. Note the two chimeric versions of 12E10 were tested. Both had relatively low affinity, while the 12E10V2 mAb was removed from usage due to very low affinity.

B1: chimeric LAIR-1 mAb 4B3 (antibody, V domains shown)
VH: QIQLQQSGAELARPGASVKLPCKASDYIFISYGLNWVRQTTGQGLEWIGEIYPRSGHTYYNEKFKGKATLTADKSSSTAYMELRSLTSEDSAVYFCARRSVFYDYDKNGFDYWGQGTTLTVSS
VL: DIVMKQSPSSLRVSAGEKVTMSCKSSQSLLNSGNQKNYLAWYQQKPGQPPKLLIYGASTRESGVPDRFTGSGSGTDFALTISSVQAEDLAVYYCQNDHSYPFTFGSGTKLEIK
Kd [1]: 32.3 nM

B6: chimeric LAIR-1 mAb 6F4 (antibody, V domains shown)
VH: QVQLQQSGAELAKPGASVKLSCKASGYTFTSYWMHWVKQRPGQGLEWIGYINPFSGHTKYNQKFKDKATLTADKSSSTAYMQLSSLTYEDSAVYYCARNFDQWGQGTTLTVSS
VL: DIKMTQSPSSMYASLGERVTITCKASQDINSYLSWVQQKPGKSPKTLIDRANRLVDGVPSRFSGSGSGQDYSLTISSLEYEDMGIYYCLQYDEFPPYTFGGGTKLEIK
Kd [1]: 12.8 nM

B8: chimeric 1E11 (antibody, V domains shown)
VH: QVQLQQSGPELVKPGASVKLSCKASGYTFTSYDINWVKQRPGQGLEWIGWIYPRDGSTKYNEKLKGKATLTVDTSSRTAYMELHSLTSEDSAVYFCARGGYYDYDGYWGQGTLVTVSA
VL: DIVMTQAAFSNPVTLGTSASISCRSSKSLLHSNGITYLYWYLQKPGQSPQVLIYQMSSLASGVPDRFSSSGSGTEFTLRISRVEAEDVGVYYCAQNLELPLTFGAGTKLELK
notes: Chimeric mAb (mouse variable, human constant)
Kd [1]: 1.37 nM
Kd [2]: < 5 nM

B10: chimeric LAIR-1 mAb 5A6 (antibody, V domains shown)
VH: QVQLQQSGAELARPGASVKLSCKASGYTFTSYGISWVKQRTGQGLEWIGEIYPRRGNTYYNEKFKGKATLTADKSSSTAYMELRSLTSEDSAVYFCARQLFAYWGQGTLVTVSA
VL: DIQMTQSPSSLSASLGERVSFSCRASQDIGSSLNWLQQEPDGTIKRLIYATSSLDSGVPKRFSGSRSGSDYSLTISSLESEDFVEYYCLQYDSFPYTFGGGTKLEIK
Kd [1]: 23.3 nM

B11: 12E10V1 (antibody, V domains shown)
VH: QVQLQQSGAELARPGTSVKLSCKASGYTFTSCGLSWVKQRTGQGLEWIGEIYPSNGNSYYSDKVKDKATLTADKSSSTAYMELRSLTSEDSAVYFCARAYYTNGYYAMDYWGQGTSVTVSS
VL: DIVMTQSQKFMSTSVGDRVSITCKASQNVRSAVAWYQQKPGQSPKTLIYLASNRHTGVPDRFTGSGSGTDFTLTISNVQSEDLADYFCLQHWNYPLTFGAGTKLELK
Kd [1]: 20.2 nM

Further lines, results first:

Kd [1]: 6.53 nM
B2: chimeric LAIR-1 mAb 6B2 (antibody, V domains shown)
VH: EVQLVESGGGLVQPKGSLKLSCAASGFSFNINAMNWVRQAPGKGLEWVARIRSKSNNYETYYADSVKDRFTISRDDSESMVYLQMNNLKTEDTAMYYCVRSLWFVYWGQGTLVTVSA
VL: DIQMTQSPASQSASLGESVTITCLASQTIGTWLAWYQQKPGKSPQLLIYAATSLADGVPSRFSGSGSGTKFSFKISSLQAEDFVSYYCQQLYSTPLTFGAGTKLELK

Kd [1]: 11.6 nM
B3: 9H6 (antibody, V domains shown)
VH: EVQLVESGGGLVQPKGSLKLSCAASGFSFNTHAMNWVRQAPGKGLEWVARIRTKSNNYATYYADSVKDRFIISRDDSENMVYLQMNNLKTEDTAIYYCVRLRGGFLDYWGQGTTLTVSS
VL: B2 VL with K42R, S76N, L96F, A100S, L106I

Kd [1]: 4.7 nM
Kd [2]: < 5 nM
B4: chimeric 6G6 (antibody, V domains shown)
VH: EVQLQQSGPELVKPGASVKISCKASGYTFTTYYMNWVKQSHGKSLEWIGNINPDNGITSYNQKFKGKATLTVDKSSSTAYMELRSLTSEDSAVYYCARGKSLAYWGQGTLVTVSA
VL: DIVMTQSHKFMSTSVGDRVSITCKASQNVGTAVAWYQQKPGQSPKLLIYWASIRHTGVPDRFTGSGSGTDFTLTISNVQSEDLADYFCQQYSSHPYTFGGGTKLEIK
notes: Chimeric mAb

Kd [1]: 3.92 nM
Kd [2]: < 5 nM
B5: chimeric 5E1 (antibody, V domains shown)
VH: EVQLQQSGPELVKPGASVKISCKASGYSFTGYFMNWVKQSPEKSLEWIGEIHPSTGSIIYNQKFKAKATLTIDKSSSTAYMQLKSLTSEDSAVYYCARFDYSNSFAYWGQGTLVTVSA
VL: DIQMTQTTSSLSASLGDRVTISCRASQDISNYLNWYQQKPDGTVKLLIYYTSRLHSGVPSRFSGSGSGTDYSLTISNLEQEDIATYFCQQGNTLPRTFGGGTKLEIK
notes: Chimeric mAb

Kd [1]: 1.98 nM
Kd [2]: < 5 nM
B7: chimeric 11B3 (antibody, V domains shown)
VH: EVQLVESGGGLVQPKGSLKLSCAASDFTFNTYAMHWVRQAPGKGLEWVARIRTKSNNYATYYADSVKDRFTISRDDSQSMLYLQMNNLTTEDTAMYYCVRDRYGGAMDYWGQGTSVTVSS
VL: DIQMAQSSSSFSVSLGDRVTITCKASEDIYIRLAWYQQKPGNAPRLLISTATSLETGVPSRFSGSGSGKDYTLSITSLQTEDVATYYCQQYWSTPYTFGGGTRLEIK
notes: Chimeric mAb

Kd [1]: 1.63 nM
Kd [2]: < 5 nM
B9: chimeric LAIR-1 mAb 7G3 (antibody, V domains shown)
VH: B8 VH with S31T, S57T, L64F, R77T
VL: B8 VL with S58N, L99F
notes: Chimeric mAb
